B1: TPR t1 (parent)
chain: GACCAAUCUGCCCUCAGAGCUCGAGAACAUCUUCGGAUGCAGAGGAGGCAGGCUUCGGUGGCGCGAUAGCGCCAACGUCCUCAACCUCCAAUGCAUCCCACCACAUGAUGAUGCCUGAAGAGCCUUGGUUUUUUG

Variants of: B1
Test: polymerase ribozyme fitness, log enrichment relative to wild type (log ratio); higher = more active; in vitro selection for triplet polymerase activity
Outline: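 One round of in vitro selection, in triplicate, was applied to PCR-built, transcribed mutant libraries of each subunit of a heterodimeric triplet polymerase ribozyme. The steps were annealing with a biotinylated primer, partner subunit and triplets, incubation frozen at −7 °C, gel excision of extended constructs, streptavidin-bead capture and RT-PCR. Fitness is the logarithm, base 2, of genotype enrichment over wild-type enrichment from inverse-variance-weighted replicate averages of Illumina-sequenced inputs and outputs, keeping genotypes with ≥10 input reads and ≥1 read per output.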

| Variant | polymerase ribozyme fitness (log ratio) |
| --- | --- |
| U33A G52U U112A | -6.07 |
| U33A G47A A121U | -3.55 |
| A29C A90G G113U C114U | -3.29 |
| A29U C56U C73U | -1.33 |
| U32C G35C C53A U78A | -4.25 |
| C28G G61A G113C | -5.25 |
| C28U G57U C86A A90G G93U U96G G113C A121U | -7.69 |
| C28U G47C C73A C97U | -3.8 |
| U32C G69C | -2.01 |
| C31U G71U G120U | -4.2 |
| U32A C70U C115G | -5.23 |
| A29U C98U | -3.59 |
| C28G G60U U130G | -2.82 |
| U32C G39A G42A G52A C70U C88G | -3.93 |
| C28G C56A | -1.87 |
| C31G C34U G69U U78C C86U C101A G113U | -7.18 |
| C31A A43G U59G C98G A100G A111G | -6.13 |
| C31U C89U U96A U106G U112A U130C | -4.19 |
| A29G G61C | -2.51 |
| U33A G51A C72U U112A | -6.67 |
| U32C U87A | -0.0352 |

| Variant | polymerase ribozyme fitness (log ratio) |
| --- | --- |
| C31U G63A | -5.33 |
| A29U G71A G135C | -2.1 |
| C31U G36A G61A U87A U106A | -2.2 |
| U30A G110U | -4.94 |
| C31A G69U | -2.98 |
| A29G C56G A91C U112A A121G G122C | -2.1 |
| C31U C86A | -5.09 |
| U32A A74C C114G | -4.4 |
| C28U G39C C56G C104U | -5.32 |
| C31A G57A C73U | -6.14 |
| U30C G58C | -2.83 |
| A29G C53G U106A G117C | -3.33 |
| C28G G42C G52C G69U G107A A108G C124G | -7.26 |
| A29U G51C G120U | -3.96 |
| C28U C49A C72A C114G | -5.7 |
| C28U C31A C85G A119G G120A | -7.42 |
| U32C G60C U106A G113A C124U | -3.04 |
| A29G A95G | -1.84 |
| C31U U32G G35U G61U A91C A121U | -7 |
| C31A G45U C115G | -6.15 |
| C31G C53A G71U G107C | -1.67 |

| Variant | polymerase ribozyme fitness (log ratio) |
| --- | --- |
| A29U C62G U81C A100U C124A | -3.66 |
| A29G G60U A84C C94U U106A G120A U125G | -0.963 |
| C31U G36U G60C C123U | -5.45 |
| C28U C40G G48U C85A | -3.6 |
| A29U G63A | -2.41 |
| U30C G61C C72U A95U | -4 |
| C31U C94A C114U | -5.92 |
| U33A C88U | -3.66 |
| A29U G48C | -2.86 |
| C31U C70A G113A C123G C124A | -7.42 |
| C31G C72A | -6.86 |
| C31G C56G A68U U81A C99G G110C | -7.68 |
| C28U G45U C114U | -4.18 |
| C28U C80U A90G C124G | -0.852 |
| U33A U87A U133G | -4.32 |
| C28A U54A G61U G110U | 2.18 |
| A29G G51U U55A G57U | -3.55 |
| C28G C82G C86A | -3.55 |
| C28U G52U C73G U78G G120U | -4.03 |
| A29G G58U U59A | -1.29 |
| A29U C88U | -1.36 |

| Variant | polymerase ribozyme fitness (log ratio) |
| --- | --- |
| A29C A46U U54G U78C G120U | -3.43 |
| U32C G60C A75C C79G | -1.89 |
| A29U A41C A119G C123G | -1.43 |
| C31U C88G | -6.51 |
| U33C A46C | -6.49 |
| U30G A95C U96C A105U A111C G120C | -6.71 |
| C28U G71U C82A | -3.3 |
| A29G G63A | -1.9 |
| U30C G69A | -4.88 |
| U30C C62U U78A U106C A121U | -3.04 |
| U30A C104U A121C | -4.08 |
| U33A G57U C124A U126A | -3.51 |
| C31U U112A G113A | -4.76 |
| U32C C64U G93A C114G U134G | -2.93 |
| C28U C62A | -2.73 |
| A29G C49G G57C A121C | -0.725 |
| C28U G71C U87G | -3.85 |
| A29U A84C U87C U112C | -0.813 |
| U30G A43C C101A U106C C115U U132A | -7.22 |
| C28U G60C | -3.11 |

— the RNAGym collection of RNA variant scans (doi:10.1073/pnas.2313332121)
